# Measured values as given in the supplement of paper PMC9112550, “Optimization of the antimicrobial peptide Bac7 by deep mutational scanning” (BMC Biology, 2022).
# System: Escherichia coli TOP10
# Test: shrunken log2 fold change of peptide-encoding DNA abundance (4.5 h post-induction vs induction); higher = less antimicrobial activity (less host growth inhibition)
# Settings: time post-induction: 4.5 h; library: site-saturation at positions 5, 18, 19, 20
# 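Note: peptides expressed intracellularly from a pBAD plasmid library in pooled LB shake-flask culture, induced with 0.3% L-arabinose, DNA abundance read by NGS, three biological replicates, DESeq2 with apeglm shrinkage.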
row,Sequence,shrunken log2 fold change
1,RRIRARPPRLPRPRPRPVQLPRP,0.101
2,RRIRERPPRLPRPRPRPNPWPRP,-0.0758
3,RRIRARPPRLPRPRPRPDPNPRP,0.531
4,RRIRLRPPRLPRPRPRPTSLPRP,-0.112
5,RRIRMRPPRLPRPRPRPCGEPRP,0.967
6,RRIRCRPPRLPRPRPRPRWDPRP,-0.128
7,RRIRDRPPRLPRPRPRPCCSPRP,0.166
8,RRIRQRPPRLPRPRPRPESMPRP,0.00186
9,RRIRLRPPRLPRPRPRPLPRPRP,0.475
10,RRIRERPPRLPRPRPRPKLTPRP,0.21
11,RRIRCRPPRLPRPRPRPIKVPRP,-0.000403
12,RRIRHRPPRLPRPRPRPVIYPRP,-0.678
13,RRIRYRPPRLPRPRPRPCWVPRP,-0.158
14,RRIRYRPPRLPRPRPRPYFSPRP,-1.16
15,RRIRFRPPRLPRPRPRPNHKPRP,-0.405
16,RRIRTRPPRLPRPRPRPCCRPRP,0.0338
17,RRIRRRPPRLPRPRPRPRHYPRP,0.279
18,RRIRCRPPRLPRPRPRPCKEPRP,-0.35
19,RRIRFRPPRLPRPRPRPGIGPRP,-0.0363
20,RRIRVRPPRLPRPRPRPWTPPRP,0.158
21,RRIRVRPPRLPRPRPRPVERPRP,0.0358
22,RRIRLRPPRLPRPRPRPAGWPRP,0.712
23,RRIRERPPRLPRPRPRPASDPRP,-0.105
24,RRIRIRPPRLPRPRPRPWRIPRP,-0.409
25,RRIRPRPPRLPRPRPRPMIVPRP,-1.14

row,Sequence,shrunken log2 fold change
1,RRIRFRPPRLPRPRPRPMKAPRP,0.035
2,RRIRHRPPRLPRPRPRPFMWPRP,-0.137
3,RRIRPRPPRLPRPRPRPKTKPRP,0.00358
4,RRIRARPPRLPRPRPRPRAHPRP,0.256
5,RRIRFRPPRLPRPRPRPITVPRP,-0.177
6,RRIRIRPPRLPRPRPRPSRPPRP,-0.00676
7,RRIRWRPPRLPRPRPRPVWCPRP,0.0155
8,RRIRQRPPRLPRPRPRPADCPRP,-0.00699
9,RRIRQRPPRLPRPRPRPQQNPRP,-0.0678
10,RRIRIRPPRLPRPRPRPINSPRP,-0.619
11,RRIRKRPPRLPRPRPRPTNDPRP,0.191
12,RRIRFRPPRLPRPRPRPGWHPRP,0.277
13,RRIRVRPPRLPRPRPRPDDEPRP,-0.125
14,RRIRMRPPRLPRPRPRPNPKPRP,0.023
15,RRIRTRPPRLPRPRPRPSYFPRP,-0.85
16,RRIRWRPPRLPRPRPRPGSFPRP,0.0155
17,RRIRWRPPRLPRPRPRPMKRPRP,0.0121
18,RRIRHRPPRLPRPRPRPYKMPRP,-0.226
19,RRIRCRPPRLPRPRPRPKCQPRP,0.201
20,RRIRQRPPRLPRPRPRPYMRPRP,-0.0086
21,RRIRWRPPRLPRPRPRPWWTPRP,-0.0199
22,RRIRIRPPRLPRPRPRPSTVPRP,-0.566
23,RRIRMRPPRLPRPRPRPATLPRP,0.132
24,RRIRQRPPRLPRPRPRPQSTPRP,-0.631
25,RRIRSRPPRLPRPRPRPHRAPRP,0.0729

row,Sequence,shrunken log2 fold change
1,RRIRARPPRLPRPRPRPHTEPRP,-0.0331
2,RRIRNRPPRLPRPRPRPPVYPRP,0.111
3,RRIRTRPPRLPRPRPRPEIDPRP,0.0426
4,RRIRARPPRLPRPRPRPTPLPRP,0.601
5,RRIRPRPPRLPRPRPRPHWDPRP,-0.208
6,RRIRYRPPRLPRPRPRPEHKPRP,-0.605
7,RRIRFRPPRLPRPRPRPMYMPRP,-0.183
8,RRIRPRPPRLPRPRPRPTDPPRP,0.0787
9,RRIRQRPPRLPRPRPRPFMFPRP,-0.144
10,RRIRRRPPRLPRPRPRPQTRPRP,0.511
11,RRIRERPPRLPRPRPRPKKPPRP,0.507
12,RRIRFRPPRLPRPRPRPQGTPRP,-0.068
13,RRIRSRPPRLPRPRPRPISPPRP,-0.402
14,RRIRMRPPRLPRPRPRPGGEPRP,1
15,RRIRCRPPRLPRPRPRPLAAPRP,0.351
16,RRIRERPPRLPRPRPRPCMIPRP,-0.2
17,RRIRTRPPRLPRPRPRPYKMPRP,-0.0239
18,RRIRVRPPRLPRPRPRPCPVPRP,-0.0687
19,RRIRKRPPRLPRPRPRPRWEPRP,0.0207
20,RRIRQRPPRLPRPRPRPTHFPRP,-0.0245
21,RRIRIRPPRLPRPRPRPRELPRP,-0.019
22,RRIRSRPPRLPRPRPRPVDRPRP,0.0715
23,RRIRDRPPRLPRPRPRPMRTPRP,0.519
24,RRIRCRPPRLPRPRPRPDNEPRP,-0.229
25,RRIRPRPPRLPRPRPRPYHHPRP,-0.655
